assay: yeast display, Sf9 membrane polyspecificity reagent, FACS + sequencing; frameworks hold sequencing errors
Method in brief: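 Sorting gates, low and high (top ~1%), were placed on anti-HA fluorescence to track expression and on streptavidin fluorescence to track reagent binding. A clone's polyreactivity label is taken from the gate it came out of. The reagent was 10% biotinylated, detergent-solubilized Sf9 membrane, applied for 1 hour at 4 °C to galactose-induced yeast display cells.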

| Sequence | polyreactivity (PSR sort gate) |
| --- | --- |
| QVQLVESGGGLVQAGGSLRLSCAASGSIFYFYAMGWYRQAPGKERELVAAITSGGSTYYADSVEGRFTISRDNAKNTVYLQMNSLKPEDTAVYYCAAQFYDLYHGTTYDYWGQGTQVTVSS | high polyreactivity |
| QVQLVESGGGLVQAGGSLRLSCAASGSIFYGNAMGWYRQAPGKERELVAAISSSGGSTYYADSVKGRFTISRDNAKNTVYLQMISLKPEDTAVYYCAADSTYYNSYDYWGQGTQVTVSS | low polyreactivity |
| QVQLVESGGGLVQAGGSLRLSCAASGSIFYGNAMGWYRQAPGKERELVAAITRGTRTYYADSVKGRFTISRDNAKNTVYLQMNSLKPEDTAVYYCAAYLYVPYRYKYDYWGQGAQVTVSS | high polyreactivity |
| QVQLVESGGGLVQAGGSLRLSCAASGSIFYGNAMGWYRQAPGKERELVAGISWSGGSTYYADSVKGRFTISRDNAKNSVFLQMNSLKPEETAVYYCAAVRWGSYTLSDDYWGQGTQLTVSS | low polyreactivity |
| QVQLVESGGGLVQAGGSLRLSCAASGSIFYGYTMGWYRQEPGKERELVAAIRKSGGSTNYADSVKGRFTISRDNAKNNVYLQMNSLKPEDTAVYYCAAAYYRGRGYYWGQGTQVTVSS | high polyreactivity |
| QVQLVESGGGLVQAGGSLRLSCAASGSIFYHNAMGWYRQAPGKERELVAAITWSGSTTYYADSVKGRFTISRDYAKNTVYLQMNSLKPEDTAVYYCNAGNRHGHYDYYWGQCTQVTVSS | low polyreactivity |
| QVQLVESGGGLVQAGGSLRLSCAASGSIFYHYSMGWYRQAPGKERELVAAITRSGGSTYYADSVKGRFTISRDNAKNTVFLQMNSLNPEDTAVYYSAKDPDSYNFLTSNWYDYWGLGTQVTVSS | low polyreactivity |
| QVQLVESGGGLVQAGGSLRLSCAASGSIFYIYAMVWYRQAPGKERELVATITRGGSSYADSVKGRFTISRDNAKNTVYFQMNSLIPEDTAVYYCAADVFKYWSQQTSTVYDYWGQGTQVTVSS | high polyreactivity |
| QVQLVESGGGLVQAGGSLRLSCAASGSIFYKYMGWNRQAPGKERELVAAISWSGGRTYYADSVKGRFTISRDNAKNTVYLQMNSLKPEDTAVYYCNRVVLWRIGDKAFEYWGQGTQVTVSS | high polyreactivity |
| QVQLVESGGGLVQAGGSLRLSCAASGSIFYLNAMGWYRMAPGKERELVATISNGGSTNYADSVKGRFTISRDNAKNTVYLQMNSLKPEDTAVYYCAAASGGTVVGEGDYWGQGTQVTVSS | low polyreactivity |
| QVQLVESGGGLVQAGGSLRLSCAASGSIFYLNAMGWYRQAPGKERELVAAITNGGSTYADSVKGRFTISRDNAKNTVYLQMNSLKPEDTAGYYCATRSWELGDYWGQGTQVTVSS | low polyreactivity |
| QVQLVESGGGLVQAGGSLRLSCAASGSIFYLYAMGLYRQAPGKERELVAAITSIGGSTYADSVKGRFTISRDNAKNTVYLQMNSLKPEDTAVYYCNTDEYPLTVQVQYYYWGQGTQVTVSS | low polyreactivity |
| QVQLVESGGGLVQAGGSLRLSCAASGSIFYLYAMGWYRPAPGKERELVARITIRGGSTYYADSVKGRFTISRDNAKNTVYLQMNSLKPEDTAVYYCAARRPYGDYDYWGQGTQVTVSS | high polyreactivity |
| QVQLVESGGGLVQAGGSLRLSCAASGSIFYLYAMGWYRQAPGKERELVAAISSGGSTNYADSVKGRFTISRDNAKNTVYLQMNSLKPEDTAVYYCAAGYKRLHWPKSDSFHGMYYWGQGTQVTVSS | low polyreactivity |
| QVQLVESGGGLVQAGGSLRLSCAASGSIFYLYAMGWYRQAPGKERELVAAISWSTSGTYYADSVKGRFTISRDNAKNTVYLQMNSLKPEDTAVYYCAADVYSPWWYDYWGQGTQVTVSS | high polyreactivity |
| QVQLVESGGGLVQAGGSLRLSCAASGSIFYLYAMGWYRQAPGKERELVAAITSIGGSTYADSVKGRFTISRDNAKNTVYLQMNSLKPEDTALYYCNTDEYPLTVQVQYYYWGQGTQVTVSS | low polyreactivity |

| Sequence | polyreactivity (PSR sort gate) |
| --- | --- |
| QVQLVESGGGLVQAGGSLRLSCAASGSIFYLYAMGWYRQAPGKERELVAAITWRGGITNYADSVKGRFTISRDNAKNTVYLQMNSLKPEDTAVYYCAADPYRFLATELYYWGQGTQVTVSS | low polyreactivity |
| QVQLVESGGGLVQAGGSLRLSCAASGSIFYLYAMGWYRQAPGKERELVASISSDGSTNYADSVKGRFTISRDNAKNTVYLQMNSLKPEDTAVYYCAADEGTGQASLSSNLYDYWGQGTQVTVSS | low polyreactivity |
| QVQLVESGGGLVQAGGSLRLSCAASGSIFYLYAMGWYRQAPGKERELVASISWGDSSTYYADSVKGRFTISRDNAKNTVYLQMNSLKPEDTAVYYCAADEYRQYALYDYWGQGTQVTVSS | low polyreactivity |
| QVQLVESGGGLVQAGGSLRLSCAASGSIFYLYAMGWYRQAPGKERELVATITASGGSTNYADSVKGRFTISRDNAKNTVYLQMNSLKPEDTAVYYCAAEYYYLVYYYKEIVAYDYWGQGTQVTVSS | high polyreactivity |
| QVQLVESGGGLVQAGGSLRLSCAASGSIFYLYAMGWYRQAPGKETEVVAAITSIGGSTYADSVKGRFTISRDNAKNTVYLQLNSLKPDDTAVYYCNTDVYPLTVQVQYYYWGQGTQVTVSS | low polyreactivity |
| QVQLVESGGGLVQAGGSLRLSCAASGSIFYLYTMGRYRQAPGKERELVAAITNGGSTDYADSVKGRFTISRDNAKNTVYLQMNSLKPEDTAVYYCNADPRYPVDELEYWVTTPYDYWGQGTQVTVSS | low polyreactivity |
| QVQLVESGGGLVQAGGSLRLSCAASGSIFYLYTMGWYRQAPGKERELVASITYSGGTYYADSVKGRFTISRDNAKNTVYLQINSLKPEDTAVYYCNADASYYLDDEYDYWGQGTQVTVSS | low polyreactivity |
| QVQLVESGGGLVQAGGSLRLSCAASGSIFYNAMGWYRQAPGKERELVASISWSGGTSTYYADSVKGRFTISRDNAKNTVYLQMNSLKPEDTAVYYCAKASRYSSYWMYYWGQGTQVTVSS | high polyreactivity |
| QVQLVESGGGLVQAGGSLRLSCAASGSIFYNNAMGWYRQAPGKERELVATIRRSGGSTYYADSVKGRFTISRDNAKNTVYLQMNSLKPEDTAVYYCAADYTPDLLSKVDYWGQGTQVTVSS | low polyreactivity |
| QVQLVESGGGLVQAGGSLRLSCAASGSIFYNYAMGWYRQAPGKEREFVAAISRSGGSTYYADSVKGRFTISRDNAKNTVYLQMNSLKPEDSAVYYCAASTRYSAFYPYGYWGQGTQVTVSS | high polyreactivity |
| QVQLVESGGGLVQAGGSLRLSCAASGSIFYNYAMGWYRQAPGKERELVAAISGSGGSTYYADSVKGRFTISRDNAKNTVYGQMNSLKPEDTAVYYCSTSGPQYYSRNFDYWGQGTQVTVSS | low polyreactivity |
| QVQLVESGGGLVQAGGSLRLSCAASGSIFYPNAMGWYRQAPGKERELVAAINGGGSTYYADSVKGRFTISRDNAKNTVYLQMNSLKPEDTAVYYCAADSNDVYYDTPSYDYWGQGTQVTVSS | low polyreactivity |
| QVQLVESGGGLVQAGGSLRLSCAASGSIFYPNAMGWYRQAPGKERELVAVITGGATTYYADSVKGRFTISRDNAKNTVYLQMNSLKPEDTAVYYCAADSAENVYRGYYWGQGTQVTVSS | low polyreactivity |
| QVQLVESGGGLVQAGGSLRLSCAASGSIFYPNAMGWYRQAPGKESELVAAISSSGGTNYADSVKGRFTISRDNAKNTVYLQMNSLKPEDTAVYYCAADIRSNRLYDGGYWGQGTQVTVSS | low polyreactivity |
| QVQLVESGGGLVQAGGSLRLSCAASGSIFYPYAMGWYRKAPGKERELVASITINDGSTYYADSVKGRFTISRDNAKHTFYLPMNRLIQEDPAVYYCNVDPVPGFGSVYEYWGQGTQVTVSS | low polyreactivity |
| QVQLVESGGGLVQAGGSLRLSCAASGSIFYPYAMGWYRQAPGKERELVAAIRNGGSTYYADSVKGRFTISRDNAKNTVYLHMNSLKPEDTAVYYCAASVRRRHPFEYWGQGTQVTVSS | high polyreactivity |

Source: the nanobody polyreactivity screen of Harvey et al. (2022)
